# Laboratory results reported in patent US20220185889.
# Biological target: CTLA-4 Ig functionalized with GzmB substrate (UniProt P16410)
# Sequence (P16410 38-161): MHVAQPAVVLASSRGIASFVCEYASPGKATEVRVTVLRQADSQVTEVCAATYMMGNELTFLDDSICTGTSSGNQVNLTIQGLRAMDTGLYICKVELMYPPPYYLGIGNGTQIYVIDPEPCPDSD
# Chain of matrix metalloproteinase 2 (P08253 110-660): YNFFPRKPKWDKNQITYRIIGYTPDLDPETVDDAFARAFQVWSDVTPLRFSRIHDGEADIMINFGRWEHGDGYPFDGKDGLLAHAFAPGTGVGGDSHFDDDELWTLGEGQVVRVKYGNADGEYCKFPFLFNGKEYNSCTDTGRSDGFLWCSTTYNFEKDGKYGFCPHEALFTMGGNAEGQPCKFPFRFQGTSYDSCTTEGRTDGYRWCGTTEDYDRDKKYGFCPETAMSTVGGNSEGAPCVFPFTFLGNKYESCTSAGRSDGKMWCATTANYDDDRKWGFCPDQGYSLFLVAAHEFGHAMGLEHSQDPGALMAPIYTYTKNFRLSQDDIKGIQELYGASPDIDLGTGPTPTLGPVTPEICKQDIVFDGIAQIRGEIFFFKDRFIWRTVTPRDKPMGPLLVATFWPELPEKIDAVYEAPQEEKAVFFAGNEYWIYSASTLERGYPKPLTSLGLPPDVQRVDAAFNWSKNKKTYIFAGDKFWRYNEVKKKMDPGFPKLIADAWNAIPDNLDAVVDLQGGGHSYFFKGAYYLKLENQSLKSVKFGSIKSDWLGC
# Chain of mannose-associated serine protease 1 (P48740 20-699): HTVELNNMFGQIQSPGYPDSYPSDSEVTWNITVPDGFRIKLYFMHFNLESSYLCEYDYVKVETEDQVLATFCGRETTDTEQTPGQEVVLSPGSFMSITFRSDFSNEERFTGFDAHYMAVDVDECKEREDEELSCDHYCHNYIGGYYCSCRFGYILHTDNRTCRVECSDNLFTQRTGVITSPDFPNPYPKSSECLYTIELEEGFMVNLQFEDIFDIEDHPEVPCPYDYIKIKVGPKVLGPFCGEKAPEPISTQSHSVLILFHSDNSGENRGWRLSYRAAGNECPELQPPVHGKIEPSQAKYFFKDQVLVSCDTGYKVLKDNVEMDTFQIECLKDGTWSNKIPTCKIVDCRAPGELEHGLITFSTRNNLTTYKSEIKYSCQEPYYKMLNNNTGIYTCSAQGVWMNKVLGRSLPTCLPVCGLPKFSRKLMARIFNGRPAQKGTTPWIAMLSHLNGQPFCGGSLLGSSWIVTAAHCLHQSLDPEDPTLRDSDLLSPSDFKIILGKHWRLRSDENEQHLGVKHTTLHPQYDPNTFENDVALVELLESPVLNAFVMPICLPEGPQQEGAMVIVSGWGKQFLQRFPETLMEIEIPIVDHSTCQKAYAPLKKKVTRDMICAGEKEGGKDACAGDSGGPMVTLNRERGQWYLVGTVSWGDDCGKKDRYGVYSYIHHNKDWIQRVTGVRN
row,Substance,in vitro cleavage assay
1,Cathepsin B,"no cross-cleavage by matrix, complement, or immune proteases"
2,granzyme B,modified CTLA-4 Ig demonstrated specific cleavage by GzmB
3,mannose-associated serine protease 1,"no cross-cleavage by matrix, complement, or immune proteases"
4,matrix metalloproteinase 2,"no cross-cleavage by matrix, complement, or immune proteases"
5,matrix metalloproteinase 9,"no cross-cleavage by matrix, complement, or immune proteases"
6,matrix metalloproteinase 15,"no cross-cleavage by matrix, complement, or immune proteases"
